Target: LoVo tumour cells (carcinoembryonic antigen, the antigen of A5B7, on the cells) (human) (UniProt P06731)
Experiment: binding of the 125I-labelled conjugate to LoVo tumour cells, method of Lindmo et al.

UniProt P06731, sequence (P06731 35-702): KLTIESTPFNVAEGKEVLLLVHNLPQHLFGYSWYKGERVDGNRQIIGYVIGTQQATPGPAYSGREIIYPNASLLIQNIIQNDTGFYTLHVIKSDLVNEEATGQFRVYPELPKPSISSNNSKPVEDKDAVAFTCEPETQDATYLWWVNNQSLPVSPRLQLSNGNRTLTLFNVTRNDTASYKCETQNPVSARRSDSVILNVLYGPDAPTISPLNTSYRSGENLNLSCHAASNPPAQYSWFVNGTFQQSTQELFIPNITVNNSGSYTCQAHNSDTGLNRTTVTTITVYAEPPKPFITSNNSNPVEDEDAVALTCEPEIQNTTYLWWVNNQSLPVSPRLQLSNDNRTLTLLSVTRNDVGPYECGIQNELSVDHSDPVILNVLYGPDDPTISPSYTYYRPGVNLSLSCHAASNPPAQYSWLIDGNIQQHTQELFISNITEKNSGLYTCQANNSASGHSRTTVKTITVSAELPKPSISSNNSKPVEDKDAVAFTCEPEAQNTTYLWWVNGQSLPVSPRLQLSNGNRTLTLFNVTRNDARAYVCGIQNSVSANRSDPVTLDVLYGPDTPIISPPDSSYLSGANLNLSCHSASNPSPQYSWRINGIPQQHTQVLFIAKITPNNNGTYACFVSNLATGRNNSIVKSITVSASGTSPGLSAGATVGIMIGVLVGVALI

immunoreactivity retained after radioiodination: > 50%
Substance: murine A5B7 F(ab')2-bovine pancreatic ribonuclease conjugate, radioiodinated with 125I (from UniProt P61823 27-150)
